Experimental data published in the supplement of paper PMC10724198.
± gives the standard deviation of the averaged measurements.

Experiments:
Assay in all cases: protein stability index of tFT-peptide fusion (C-terminal peptide) (PSI (0-1 scale)); higher = more stable (slower turnover)
Saccharomyces cerevisiae [1] = conditions: temperature: 30 C
Description: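 MPS profiling in S. cerevisiae of the yeast C-terminome library: the last 12 aa of each annotated ORF are fused to the C-terminus of a sfGFP-mCherry timer, after a GGGS linker. Cells are FACS-sorted into 8 mCherry/sfGFP bins and deep-sequenced. PSI runs from 0 (unstable) to 1 (stable); wild type and das1Δ backgrounds, two technical replicates each.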

Saccharomyces cerevisiae [2] = conditions: genetic background: wild type; temperature: 30 C
Saccharomyces cerevisiae [3] = system: Saccharomyces cerevisiae
Description: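 MPS profiling in S. cerevisiae of the tFT-X12 degron library: putative degron peptides plus stable controls, 12 aa, fused to the C-terminus of a sfGFP-mCherry timer. Cells are FACS-sorted into 8 mCherry/sfGFP bins and deep-sequenced. PSI runs from 0 (unstable) to 1 (stable). Backgrounds are wild type, das1Δ and doa10Δ at 30 °C, and wild type, das1Δ, cdc34-1 and cdc53-1 at 37 °C; 2-3 technical replicates each.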

[4] = genetic background: das1 deletion
[5] = genetic background: cdc34-1, temperature: 37 C
[6] = genetic background: cdc53-1, temperature: 37 C
[7] = genetic background: das1 deletion, temperature: 30 C
[8] = genetic background: das1 deletion, temperature: 37 C
[9] = genetic background: doa10 deletion, temperature: 30 C
[10] = genetic background: wild type, temperature: 30 C
[11] = genetic background: wild type, temperature: 37 C

Row | Sequence | protein stability index (Saccharomyces cerevisiae [1]; [4]) | protein stability index (Saccharomyces cerevisiae [1]; genetic background: wild type) | protein stability index (Saccharomyces cerevisiae [2]) | protein stability index (Saccharomyces cerevisiae [3]; [5]) | protein stability index (Saccharomyces cerevisiae [3]; [6]) | protein stability index (Saccharomyces cerevisiae [3]; [7]) | protein stability index (Saccharomyces cerevisiae [3]; [8]) | protein stability index (Saccharomyces cerevisiae [3]; [9]) | protein stability index (Saccharomyces cerevisiae [3]; [10]) | protein stability index (Saccharomyces cerevisiae [3]; [11])
1 | DELSLRPATERI [YGR038C-E C-terminal 12 aa] | 0.739 ± 0.23 | 0.571 | – | – | – | – | – | – | – | –
2 | DFNDSSNLKKTR [CLN3 C-terminal 12 aa] | 0.7398 ± 0.0057 | 0.693 ± 0.039 | – | – | – | – | – | – | – | –
3 | DGEFVVSDLRLR [YOR283W C-terminal 12 aa] | 0.708 ± 0.0071 | 0.682 ± 0.015 | – | – | – | – | – | – | – | –
4 | DGGVKRIRVWGY [DAL2 C-terminal 12 aa] | 0.706 ± 0.024 | 0.703 ± 0.054 | – | – | – | – | – | – | – | –
5 | DGVENTPVESQQ [NMD3 C-terminal 12 aa] | 0.6821 ± 0.0024 | 0.707 ± 0.0061 | – | – | – | – | – | – | – | –
6 | DIFSRFSIILKC [YPR136C C-terminal 12 aa] | 0.413 ± 0.017 | 0.281 ± 0.012 | – | – | – | – | – | – | – | –
7 | DIRAHLAEYYSF [PAU7 C-terminal 12 aa] | 0.728 ± 0.026 | 0.687 ± 0.011 | – | – | – | – | – | – | – | –
8 | DKLGFLDRRRNE [COI1 C-terminal 12 aa] | 0.683 ± 0.036 | 0.668 ± 0.043 | – | – | – | – | – | – | – | –
9 | YILRLMMEGICL | – | – | 0.4198 ± 0.0029 | 0.497 ± 0.012 | 0.545 ± 0.036 | 0.416 ± 0.033 | 0.48 ± 0.019 | 0.422 ± 0.038 | 0.409 ± 0.0083 | 0.464 ± 0.022
10 | YLFFVCLHLKAG | – | – | 0.302 ± 0.044 | 0.233 ± 0.03 | 0.335 ± 0.018 | 0.227 ± 0.031 | 0.417 ± 0.013 | 0.174 ± 0.0063 | 0.206 ± 0.018 | 0.3494 ± 0.00053
11 | YLRVRRPGSALV | – | – | 0.654 ± 0.23 | 0.7087 ± 0.0013 | 0.769 ± 0.028 | 0.63 ± 0.022 | 0.7643 ± 0.0014 | 0.629 ± 0.035 | 0.624 ± 0.0081 | 0.7277 ± 0.0017
12 | YNKIRNNEKKMT | – | – | 0.36 ± 0.017 | 0.664 ± 0.084 | 0.696 ± 0.026 | 0.674 ± 0.073 | 0.7121 ± 0.0016 | 0.1897 ± 0.0018 | 0.27 ± 0.055 | 0.457 ± 0.043
13 | YPSCPINFICLC | – | – | 0.417 ± 0.035 | 0.618 ± 0.0088 | 0.6992 ± 0.0053 | 0.585 ± 0.017 | 0.685 ± 0.01 | 0.29 ± 0.0056 | 0.308 ± 0.037 | 0.499 ± 0.0051
14 | YRNVLLVLNYWS | – | – | 0.491 ± 0.0064 | 0.447 ± 0.076 | 0.368 ± 0.029 | 0.428 ± 0.031 | 0.544 ± 0.0087 | 0.518 ± 0.0072 | 0.406 ± 0.022 | 0.51 ± 0.026
15 | YSIHYLRFFSLF | – | – | 0.133 ± 0.034 | 0.4734 ± 0.00049 | 0.6669 ± 0.0066 | 0.6143 ± 0.0048 | 0.726 ± 0.014 | 0.0685 ± 0.011 | 0.0874 ± 0.015 | 0.0998 ± 0.011
16 | YSMLGKLVRLVT | – | – | 0.285 ± 0.033 | 0.553 ± 0.05 | 0.662 ± 0.02 | 0.512 ± 0.025 | 0.63036 ± 0.00022 | 0.164 ± 0.004 | 0.2 ± 0.013 | 0.374 ± 0.015
17 | YVCLVWHRNFFS | – | – | 0.259 ± 0.0039 | 0.617 ± 0.014 | 0.704 ± 0.019 | 0.605 ± 0.011 | 0.73 ± 0.048 | 0.14 ± 0.0063 | 0.155 ± 0.025 | 0.228 ± 0.076
18 | YVSSFSLVVLLS | – | – | 0.228 ± 0.029 | 0.425 ± 0.0077 | 0.478 ± 0.024 | 0.377 ± 0.033 | 0.506 ± 0.0069 | 0.108 ± 0.015 | 0.125 ± 0.014 | 0.217 ± 0.017
19 | YVVCFFFKLFYF | – | – | 0.382 ± 0.046 | 0.271 ± 0.012 | 0.364 ± 0.024 | 0.299 ± 0.025 | 0.4172 ± 0.0025 | 0.256 ± 0.0065 | 0.244 ± 0.025 | 0.341 ± 0.024
20 | YVVYLQVCWMRS | – | – | 0.227 ± 0.0044 | 0.072 ± 0.025 | 0.206 ± 0.076 | 0.134 ± 0.019 | 0.23 ± 0.0061 | 0.0911 ± 0.019 | 0.104 ± 0.035 | 0.186 ± 0.024
